From patent publication US20150037348A1 (AbbVie / Abbott, published 2015)

Legend:
Assay in all cases: competition ELISA: soluble cytokine against J695 (100 ng/ml) binding to immobilized human IL-12
human IL-1α = biological target: T1, human IL-1α (human, UniProt P01583 113-271)
T1 sequence (looked up): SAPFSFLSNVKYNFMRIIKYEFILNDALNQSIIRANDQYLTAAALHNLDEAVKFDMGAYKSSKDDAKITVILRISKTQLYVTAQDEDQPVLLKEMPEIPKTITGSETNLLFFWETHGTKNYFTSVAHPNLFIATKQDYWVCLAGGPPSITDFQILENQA
Procedure: (§1) The plates were washed 4 times and incubated for 1 h at room temperature with 100 μl mouse anti-human lambda-HRP (1:500 in PBS-T/BSA, Southern Biotech. Ass. Inc., Birmingham, Ala.). The plates were washed 4 times and developed with ABTS (Kirkegaard & Perry Lab, Gaithersburg, Md.) for 20-30 minutes in the dark. The OD₄₅₀ nm was read using a microplate reader (Molecular Devices, Menlo Park, Calif.).

human IL-1β = human IL-1β (human, UniProt P01584 117-269)
Procedure: as §1

human IL-2 = human IL-2 (human, UniProt P60568 21-153)
Procedure: as §1

human IL-4 = biological target: T2, human IL-4 (human, UniProt P05112 25-153)
T2 sequence (looked up): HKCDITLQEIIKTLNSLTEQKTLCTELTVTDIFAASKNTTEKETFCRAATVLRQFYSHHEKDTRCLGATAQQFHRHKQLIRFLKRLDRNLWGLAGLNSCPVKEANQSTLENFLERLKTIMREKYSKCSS
Procedure: as §1

human IL-10 = human IL-10 (human, UniProt P22301 19-178)
Procedure: as §1

human IL-17 = human IL-17 (human, UniProt Q16552 20-155, limits assumed)
Procedure: as §1

human IFN-gamma = biological target: T3, human IFN-gamma (human, UniProt P01579 24-166, limits assumed)
T3 sequence (looked up): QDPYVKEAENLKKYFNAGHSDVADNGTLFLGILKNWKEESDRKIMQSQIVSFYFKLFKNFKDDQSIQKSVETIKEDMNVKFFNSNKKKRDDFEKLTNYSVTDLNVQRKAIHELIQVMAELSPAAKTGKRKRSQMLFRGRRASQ
Procedure: as §1

human TGF-β1 = human TGF-β1 (human, UniProt P01137 279-390)
Procedure: as §1

human IL-8 = human IL-8 (human, UniProt P10145 28-99, limits assumed)
Procedure: as §1

human IGF-II = human IGF-II (human, UniProt P01344 25-91)
Procedure: as §1

human TNFα = human TNFα (human, UniProt P01375 77-233)
Procedure: as §1

human lymphotoxin = biological target: T4, human lymphotoxin (human, UniProt P01374 35-205, limits assumed)
T4 sequence (looked up): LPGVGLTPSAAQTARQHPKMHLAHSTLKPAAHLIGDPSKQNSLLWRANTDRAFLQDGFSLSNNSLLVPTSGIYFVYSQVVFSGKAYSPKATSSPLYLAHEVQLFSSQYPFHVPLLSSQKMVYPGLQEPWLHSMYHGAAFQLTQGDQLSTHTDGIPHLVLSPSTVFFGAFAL
Procedure: as §1

human IL-6 = human IL-6 (human, UniProt P05231 30-212)
Procedure: as §1

[1] = biological target: T5, human soluble IL-6 receptor (human, UniProt P08887 20-358)
T5 construct: Soluble form
T5 sequence (looked up): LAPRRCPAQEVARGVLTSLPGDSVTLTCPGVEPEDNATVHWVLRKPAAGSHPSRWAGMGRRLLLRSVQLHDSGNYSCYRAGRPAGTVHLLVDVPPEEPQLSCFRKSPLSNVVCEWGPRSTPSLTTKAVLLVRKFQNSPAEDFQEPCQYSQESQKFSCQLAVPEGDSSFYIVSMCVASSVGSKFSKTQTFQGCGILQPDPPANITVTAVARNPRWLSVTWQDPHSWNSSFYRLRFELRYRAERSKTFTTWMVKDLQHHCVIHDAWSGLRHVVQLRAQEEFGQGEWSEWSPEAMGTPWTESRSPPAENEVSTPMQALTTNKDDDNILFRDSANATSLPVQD
Procedure: as §1

human IL-11 = biological target: T6, human IL-11 (human, UniProt P20809 22-199)
T6 sequence (looked up): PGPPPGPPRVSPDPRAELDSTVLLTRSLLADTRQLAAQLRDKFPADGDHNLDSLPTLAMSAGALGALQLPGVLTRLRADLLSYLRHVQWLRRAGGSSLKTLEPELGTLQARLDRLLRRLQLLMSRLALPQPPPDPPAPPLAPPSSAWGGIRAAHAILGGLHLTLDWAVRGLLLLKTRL
Procedure: as §1

human M-CSF = biological target: T7, human M-CSF (human, UniProt P09603 33-190, limits assumed)
T7 sequence (looked up): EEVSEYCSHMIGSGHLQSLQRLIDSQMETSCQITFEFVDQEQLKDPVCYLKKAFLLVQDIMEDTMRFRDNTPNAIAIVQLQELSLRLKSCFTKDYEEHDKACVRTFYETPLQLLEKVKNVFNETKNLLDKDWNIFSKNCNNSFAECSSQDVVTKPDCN
Procedure: as §1

Measured: binding result

B1: J695 (antibody, V domains shown)
VH: QVQLVESGGGVVQPGRSLRLSCAASGFTFSSYGMHWVRQAPGKGLEWVAFIRYDGSNKYYADSVKGRFTISRDNSKNTLYLQMNSLRAEDTAVYYCKTHGSHDNWGQGTMVTVSS
VL: QSVLTQPPSVSGAPGQRVTISCSGSRSNIGSNTVKWYQQLPGTAPKLLIYYNDQRPSGVPDRFSGSKSGTSASLAITGLQAEDEADYYCQSYDRYTHPALLFGTGTKVTVLG
notes: Human IgG1 with lambda light chain (detected with anti-human lambda); Made in CHO or COS cells
no binding (tested: 2 nM): all assays above
